Test: yeast display, Sf9 membrane polyspecificity reagent, FACS + sequencing; frameworks hold sequencing errors
Outline: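 Using colony PCR, genes from sorted yeast display clones were amplified, then sequenced on MiSeq at 2 × 250 and filtered by CDR length. The clones had been stained with 10% biotinylated, detergent-solubilized Sf9 membrane reagent for 1 hour at 4 °C and sorted by FACS into low and high (top ~1%) gates on anti-HA and streptavidin fluorescence. Polyreactivity labels come from the gate of origin.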

Row | Sequence | polyreactivity (PSR sort gate)
1 | QVQLVESGGGLVQAGGSLRLSCAASGSIFPPYAIGSYRQAPGKERELVATITIRGGSTYYADSVKGRFTISRDNAKNTVYLQMNSLKPEDTAVYYCAADYTKYYRRYYYWGQGTQVTVSS | high polyreactivity
2 | QVQLVESGGGLVQAGGSLRLSCAASGSIFPQYAIGWYRQAPGKERELVAAITRSGGGTHYADSVKGRFTISRDNAKNTVYLQMNSLKPEDTAVYYCAKAGYRSEFEYWGQGTQVTVSS | low polyreactivity
3 | QVQLVESGGGLVQAGGSLRLSCAASGSIFPRNAMGWYRQAPGKERELVAAIRKSGGSTYYADSVKGRFTISRDNAKNTVYLQMNSLKPEDTAVYYCAKTYSVSSWQSPIYNYWGQGTQVTVSS | low polyreactivity
4 | QVQLVESGGGLVQAGGSLRLSCAASGSIFPRNAMGWYRQAPGKERELVAAITTTGGITHYADSVKGRFTISRDNAKNTVYLLMNSLKPEDTAVYYCNASYEYNAGRVETEYDYWGQGTKVTVSS | low polyreactivity
5 | QVQLVESGGGLVQAGGSLRLSCAASGSIFPRNAMGWYRQAPGKERELVAAITTTGGITHYADSVKGRFTISRDNAKNTVYLQMNSLKPEDTAVYYCNASYEYNAGRVETEYDYWGQGTQVTVSS | low polyreactivity
6 | QVQLVESGGGLVQAGGSLRLSCAASGSIFPSNAMGWYRQAPGKERELVAAINRDGITNYADSVKGRFTISRDNAKNTVYLQMNSLKPEDTAVYYCNAYNYDFYASFWYEVDYWGLGTQVTVSS | low polyreactivity
7 | QVQLVESGGGLVQAGGSLRLSCAASGSIFPSNAMGWYRQAPGKERELVATIGRGGTTNYADSVKGRFTISRDNAKNTVYLQMNSLKPEDTAVYYCNAERIWRYKYGYDYWGQGTQVTVSS | high polyreactivity
8 | QVQLVESGGGLVQAGGSLRLSCAASGSIFPSYAMGWYRQAPGKERELVAAISVSGGSTYYADSVKGRFTISRDTAKNTVYLQMNSLKPEDTAVYYCAAQHGYPRYYYWGQGTQVTVSS | high polyreactivity
9 | QVQLVESGGGLVQAGGSLRLSCAASGSIFPTNAMGWYRQAPGKERELVAAITGNGGRTYYADSVKGRFTISRDNAKNTVYLQMNSLKPEDTAVYYCAALTYASNRYGYWGQGTQVTVSS | high polyreactivity
10 | QVQLVESGGGLVQAGGSLRLSCAASGSIFPVNTMGWYRQAPGKERELVAAITQRGGRTYYADSVKGRFTISRDNAKNTVYLQMNSLKPEDTAVYYCNRDLGAGGYDYWGQGTQVTVSS | low polyreactivity
11 | QVQLVESGGGLVQAGGSLRLSCAASGSIFPVYAMGWYRQAPGKDRELDATITDGGGDTYYADSVMGRFTISRDNAKNTVYLQMNSLKPEDTAVLYCAARSIPEWSAYWYDYWGQGTQVTVSS | low polyreactivity
12 | QVQLVESGGGLVQAGGSLRLSCAASGSIFPVYAMGWYRQAPGKERELVAAISLRAGNTYYADSVKGRFTISRDNAKNTVYLQMNSLKPEDTAVYYCAVEWFRSTTIFDYWGQGTQVTVSS | high polyreactivity
13 | QVQLVESGGGLVQAGGSLRLSCAASGSIFPWNTMGWYRQAPGKERELVARISTSGASTYYADSVKGRFTISRDNAKNTVYLQMNSLKPEDTAVYYCAARKRPFYKYDYWGQGTQVTVSS | high polyreactivity
14 | QVQLVESGGGLVQAGGSLRLSCAASGSIFPWYAMGWYRQAPGKERELVAAITISGGSTHYADSVKGRFTISRDNAKNTVYLQMNSLKPEDTAVYYCATPRYPSYEYWGQGTQVTVSS | low polyreactivity
15 | QVQLVESGGGLVQAGGSLRLSCAASGSIFPYAMGWYRQAPGKERELVAAITSGVRTNYADSVKGRFTISRDNAKNTVYLQIYSLKPEDTAVYYCAARYFPHYYSKYDYWGQGTQVTVSS | low polyreactivity
16 | QVQLVESGGGLVQAGGSLRLSCAASGSIFPYNAMGWYRQAPGKERELVAAITSSGGRTYYADSVKGRFTISRDNAKNTVYLQMNSLKPEDTAVYYCAVEANYHTYWLYYWGQGTQVTVSS | high polyreactivity
17 | QVQLVESGGGLVQAGGSLRLSCAASGSIFPYNAMGWYRQAPGKERQLVARISWSGGSTYYADSVKGRFTISRDNAKNTVYLQMNSLKPEDTAVYYCAATIIFDAQYRFYYWGQGTQVTVSS | low polyreactivity
18 | QVQLVESGGGLVQAGGSLRLSCAASGSIFPYNAMGWYRQPPGKERELVATISSGGSTNYADSVKGRFTISRDNAKNTVYLQMNSLKPEDTAVFYCAADVIVFYYAPNYWGDIEYGYWGQGTQVTVSS | low polyreactivity
19 | QVQLVESGGGLVQAGGSLRLSCAASGSIFPYNVMGWYRQAPGKERELVAAISTRGGRTYYADSVKGRFTISRDNAKNTVYLQMNSLKPEDTAVYYCATAGGPYSASGYYWGQGTQVTVSS | high polyreactivity
20 | QVQLVESGGGLVQAGGSLRLSCAASGSIFPYYAMGWYRPAPGKERELVASINQSDGTTYYADSVKGRFTISRDNAKNTVYLQMNRLKPEDTAVSYCAADTTLQDFIRYRPMGSYDSWGQGTQVTVSS | low polyreactivity
21 | QVQLVESGGGLVQAGGSLRLSCAASGSIFPYYAMGWYRQAPGKERELVARITWRSTSTYADSVKGRFTISRDNAKNTVYLQMNSLKPEDTAVYYCAVRLLSTYIIEYDHWGQGTQVTVSS | low polyreactivity
22 | QVQLVESGGGLVQAGGSLRLSCAASGSIFPYYTMGGYRQAPGKERELVAVISSGGSTNYAVSVKGRFTISRDNAKNTVYLQMNSLKPEDTAVYYCNARRYWLRYDYWGLGTQVTVSS | low polyreactivity

Row | Sequence | polyreactivity (PSR sort gate)
23 | QVQLVESGGGLVQAGGSLRLSCAASGSIFPYYTMGWYRQAPGKERELVAAISGSGTSTYYADSVKGRFTISRDNAKNTVYLQMISLKPEDTAVYYCAKRFRYGYVNYYYWGQGTQVTVSS | low polyreactivity
24 | QVQLVESGGGLVQAGGSLRLSCAASGSIFQGYALGWYRQAPGKERELVAAITASGGSTYYADSVKGRFTISRDNAKNTVYLQMNSLKPEDTAVYYCATDSYWRQDLYRYEYWGQGTQVTVSS | high polyreactivity
25 | QVQLVESGGGLVQAGGSLRLSCAASGSIFQGYAMGWYRQAPGKERELVAGITSSGGSTHYADSVKGRFTISRDNAKNTVYLQMNSLKPEDTAVYDYWGQGTQVTVSS | low polyreactivity
26 | QVQLVESGGGLVQAGGSLRLSCAASGSIFQHYAMGLYRQAPGKERELVAAISYDTTSTYYADSVKGRFTISRDNAKNTVYLQMNSLKPEDTAVYYCNTYPEVYGPFQYDYWGQGTQVTVSS | low polyreactivity
27 | QVQLVESGGGLVQAGGSLRLSCAASGSIFQINAMGWYRPAPGKERECVASITYSGGSTYYADSVKGRFTISRDNAKNTVYLQMNSLKPEDTAVYYCAAESYWGYDYWGQGTQVTVSS | high polyreactivity
28 | QVQLVESGGGLVQAGGSLRLSCAASGSIFQINVMGWYRQAPGKERELVAASYADSVKGRFTISRDNAKNTVYLQMNSLKPEDTAVYYCARSNPAYSIYDYWGQGTQVTVSS | low polyreactivity
29 | QVQLVESGGGLVQAGGSLRLSCAASGSIFQINVMGWYRQAPGKERELVAASYADSVKGRFTISRDNAKNTVYVQMNSLKPEDTAVYYCARTNPAYSIYDYWGQGTQVTVSS | low polyreactivity
30 | QVQLVESGGGLVQAGGSLRLSCAASGSIFQKNAMGWYRQAPGKERELVATIRWSGGRTYYADSVKGRFTISRDNAKNTVYLQMNSLKPEDTAVYYCNAGYKGDYDYWGQGTQVTVSS | high polyreactivity
31 | QVQLVESGGGLVQAGGSLRLSCAASGSIFQNYAMGWYRQAPGKERELVAAINDDSTYYADSVKGRFTISRDNAKNTVYLQMNSLKPEDTAVYYCNAEDYVTLKIDLSWPYGYWGQGTQVTVSS | low polyreactivity
32 | QVQLVESGGGLVQAGGSLRLSCAASGSIFQRNAMGWYRQAPGKERELVAAISRSGGRTYYADSVKGRFTISRDNAKNTVYLQMNILKPEDTAVYYCAADSPYIQNRFEYWGQGTQVTVSS | high polyreactivity
33 | QVQLVESGGGLVQAGGSLRLSCAASGSIFQRYAMGWYRQAPGKEREFVAAISGRGGSTYYADSVKGRFTISRDNAKNTVYLQMNSLKPEDTAVYYCAVRGRSYVRTYDYWGQGTQVTVSS | high polyreactivity
34 | QVQLVESGGGLVQAGGSLRLSCAASGSIFQSNAMGWDRQAPGKERELVAAISSSGVRTYYADSVKGRFTISRDNAKNTVYLQMNSLKPEDTAVYYCATGWYYAGGPTYEYYYWGQGTQVTVSS | low polyreactivity
35 | QVQLVESGGGLVQAGGSLRLSCAASGSIFQSNAMGWYRQPPGKERELVAAISSSGVRTYYADSVKGRFTISRDNAKNTVYLQMNSLKPEDTAVYFCATGWYYAGGPTYEYYYWGQGTQVTVSS | low polyreactivity
36 | QVQLVESGGGLVQAGGSLRLSCAASGSIFQSYAMGWYRQAPGKERELVAAITERGGSTYYADSVKGRFTISRDTAKNTVYLQMNSLKPEDTAVYYCAADIYYWWCLSDLYTPTEGDYWGQGTQVTVSS | low polyreactivity
37 | QVQLVESGGGLVQAGGSLRLSCAASGSIFQVYAMGWYRQAPGKERELVAAISGGGSSTYYADSVKGRFTISRDNAKNTVYLQMNSLKPEDTAVYYCAAAYSWYDNNRYDYWGQGTQVTVSS | low polyreactivity
38 | QVQLVESGGGLVQAGGSLRLSCAASGSIFQVYSMGWYRQAPGKEREFVAAISFSGGGTYYADSVKGRFTISRDNAKNTVYLQMNSMKPEDTAVYYCAADVSGWEYDYWGQGTQVTVSS | low polyreactivity
39 | QVQLVESGGGLVQAGGSLRLSCAASGSIFQYNTMGWYRQAPGKERELVAAINWSGVSTYYADSVKGRFTISRDNAKNTVYLQMNILKPEDTAVYYCNARRYVDGSYIYDRGYWGQGTQVTVSS | high polyreactivity
40 | QVQLVESGGGLVQAGGSLRLSCAASGSIFQYNVKGWYIQAPGTERELVAAITSGGSTYYADSVKGRFTISRDNAKNTVYLQMNSLKPEDTAVYYCARDIRRKGFRYDYWGQGTQVTVSS | high polyreactivity
41 | QVQLVESGGGLVQAGGSLRLSCAASGSIFQYYAMGWYRQAAGKERELVAAISGSGGRTYYADSVKGRFTISRDNAKNTVYLQMNSLKPEDTAVYYCNTVWWKQYNYWGQGTQVTVSS | high polyreactivity
42 | QVQLVESGGGLVQAGGSLRLSCAASGSIFQYYGMGWYRQAPGKERELVASISRSGGSTYYADSVKGRFTISRDNAKNTVYLQMNSLKPEDTAVYYCNKRTYRQLSSWDYTYYYWGQGTQVTVSS | low polyreactivity
43 | QVQLVESGGGLVQAGGSLRLSCAASGSIFQYYVMGWYRQAPGKERELDAAIRRSGTTYYADSVKGRFTISRDNAKNTVYLQMNSLKPEDTAVDYCNADSIYYYYLIEYEYWGQGSQVTVSS | low polyreactivity

Reference: the nanobody polyreactivity screen of Harvey et al. (2022)
